The record followed here is the RNAGym collection of RNA variant scans (doi:10.1073/pnas.2313332121).

The labels stand for the following.
B1: TPR t1 (parent)
chain: GACCAAUCUGCCCUCAGAGCUCGAGAACAUCUUCGGAUGCAGAGGAGGCAGGCUUCGGUGGCGCGAUAGCGCCAACGUCCUCAACCUCCAAUGCAUCCCACCACAUGAUGAUGCCUGAAGAGCCUUGGUUUUUUG

In the data set the parent is B1. The data set can be described thus: polymerase ribozyme fitness, log enrichment relative to wild type (log ratio); higher = more active; in vitro selection for triplet polymerase activity. The procedure, abridged: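 A single round of triplicate in vitro selection, including frozen incubation at −7 °C, was applied to PCR-built, transcribed mutant libraries of each subunit of a heterodimeric triplet polymerase ribozyme. Illumina sequencing of input and output libraries retained genotypes with ≥10 input reads and ≥1 read per output. Fitness is the base-2 logarithm of genotype enrichment divided by wild-type enrichment, from inverse-variance-weighted replicate averages.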
U9C G17A A43U A50U A74C G120U: the “polymerase ribozyme fitness (log ratio)” value was -4.05.

As for U9G C22G C101A C115U, the “polymerase ribozyme fitness (log ratio)” value is -3.13. The figure for G10U A18G A43C C72U C80U C85U G120U is -3.18. For the variant U9C A41C G52A C98U U130G, the “polymerase ribozyme fitness (log ratio)” value was -2.71.

As for G10A C20G A41C G48A G69U A84G, the “polymerase ribozyme fitness (log ratio)” value was -3.37. On to G10A C11A U14G U54C C56U U81A, for which the “polymerase ribozyme fitness (log ratio)” value is -2.09. On to U9G A83G G93A C102A C123U, for which the “polymerase ribozyme fitness (log ratio)” value was -2.93. As to G10A U132A, the “polymerase ribozyme fitness (log ratio)” value was 0.124. On to G10C U14G C70U A91C, for which the “polymerase ribozyme fitness (log ratio)” value is -4.25. On to U9A A50U C102A, for which the “polymerase ribozyme fitness (log ratio)” value was -1.91.

With U9A G69U, the “polymerase ribozyme fitness (log ratio)” value is 0.755. In the case of U9A G45U C73U C98U, the “polymerase ribozyme fitness (log ratio)” value was -0.532. Take G10C C72U A118G: the “polymerase ribozyme fitness (log ratio)” value is -1.84. Take G10C A46G C124U: the “polymerase ribozyme fitness (log ratio)” value was -0.222. Regarding U9G C28G A111C G122A, the “polymerase ribozyme fitness (log ratio)” value was -4.22. U9C U14A U21C A43C G117A A119G: the “polymerase ribozyme fitness (log ratio)” value was -1.44. Regarding U9A G42A U87C C101A G120A, the “polymerase ribozyme fitness (log ratio)” value was -1.63. The figure for G10U A50C C80U G120U is -0.0895. The figure for U9C G47U G63U is -1.41; for G10A C73U U78A C79U C94A it is -0.0725. With U9C U133G, the “polymerase ribozyme fitness (log ratio)” value is 0.11. On to U9C G39A A41U C73G G120U, for which the “polymerase ribozyme fitness (log ratio)” value is -0.71. As to G10A C12A C102A, the “polymerase ribozyme fitness (log ratio)” value is -2.74.

For the variant G10A U55C C70U, the “polymerase ribozyme fitness (log ratio)” value is -0.798.

As to G10A C13U U14A G61U C104G, the “polymerase ribozyme fitness (log ratio)” value is -6.29. As to U9G C73U C82A A83C A118U G128A, the “polymerase ribozyme fitness (log ratio)” value was -1.71. As for G10C G35A G69U U81G C82G C123A, the “polymerase ribozyme fitness (log ratio)” value was -2.07. Consider G10C C15A G39C, for which the “polymerase ribozyme fitness (log ratio)” value is -4.62. Turning to G10A C15A C73U, the “polymerase ribozyme fitness (log ratio)” value was -2.06. Turning to U9G G63U G120C, the “polymerase ribozyme fitness (log ratio)” value was found to be 0.237. Turning to U9C C12G U55C A83G G93A C102U, the “polymerase ribozyme fitness (log ratio)” value is -5.25. For U9G G36C C56U C76U C85U A118U the value was -2.3. In the case of U9G G65C G69C, the “polymerase ribozyme fitness (log ratio)” value was -5.37. As to U9A A50G C88G A108U, the “polymerase ribozyme fitness (log ratio)” value was -4.75.

For the variant U9A G63U G120C, the “polymerase ribozyme fitness (log ratio)” value was found to be 0.699. U9G C15A C97U A108G G120A: the “polymerase ribozyme fitness (log ratio)” value was -1.87. G10A U109A U133G: the “polymerase ribozyme fitness (log ratio)” value was -7.59. As for U9C G52A C104U A121U, the “polymerase ribozyme fitness (log ratio)” value came to 2.1. For U9G C20U G51U C94U the value was -4.89; for G10A C53G G69U C88U G110U, -0.0648. Regarding G10C G42A A43U C80A U132A, the “polymerase ribozyme fitness (log ratio)” value was -5.05. On to U9C A37U A66C, for which the “polymerase ribozyme fitness (log ratio)” value is -1.35. For the variant U9C A43G C89U, the “polymerase ribozyme fitness (log ratio)” value is -0.469. Take U9A G71A C73A C85A U116A: the “polymerase ribozyme fitness (log ratio)” value was -3.81. For the variant U9C A27G C56A U92A, the “polymerase ribozyme fitness (log ratio)” value is -3.57. The figure for U9A C89G A90U is -0.63. The figure for G10A U96A is -0.657; for U9G G51C it is -3.27; for G10C G42C G44U C72U U87G it is -5.88.

U9G C34U U59A A103U: the “polymerase ribozyme fitness (log ratio)” value was -5.76. For G10A U109A the value was -5.39; for G10A G63A U130G, -0.867; for U9G C28U G61U C72G U87A G122A, -1.55. With U9C C15G U106A, the “polymerase ribozyme fitness (log ratio)” value was -1.27.

As to G10A A27G C31G G107C, the “polymerase ribozyme fitness (log ratio)” value is -2.98.

Take U9A C20A: the “polymerase ribozyme fitness (log ratio)” value was -2.35.

As to U9G C82G, the “polymerase ribozyme fitness (log ratio)” value is -0.102.

Take U9A G52A C104U G110C: the “polymerase ribozyme fitness (log ratio)” value was -3.92. As to G10C C13G, the “polymerase ribozyme fitness (log ratio)” value was -0.638. Regarding U9G G48C G120A U130A G135U, the “polymerase ribozyme fitness (log ratio)” value was -0.622. The figure for U9A U87A is 1.16. Turning to U9A C11A C70U C85U, the “polymerase ribozyme fitness (log ratio)” value was -1.15.

In the case of U9G G48A U81A C89A G93U C115G C123G, the “polymerase ribozyme fitness (log ratio)” value is -6.43.

Regarding U9C G19C C70U, the “polymerase ribozyme fitness (log ratio)” value was -3.22. In the case of U9C A29G G58A A90U G110A, the “polymerase ribozyme fitness (log ratio)” value is -4.22. For the variant G10A C12U G71U U112A, the “polymerase ribozyme fitness (log ratio)” value was found to be 1.43. With G10A A29G C62U G113A U130A, the “polymerase ribozyme fitness (log ratio)” value is -3.56.

As for U9G C11U G35U G69U C89U, the “polymerase ribozyme fitness (log ratio)” value was -3.13. Turning to G10U A46U C73U C88A U133A, the “polymerase ribozyme fitness (log ratio)” value was -2.31.

On to U9G C72G G113A G120A, for which the “polymerase ribozyme fitness (log ratio)” value is -1.17.

In the case of G10A A16C A50G C101A, the “polymerase ribozyme fitness (log ratio)” value is -2.99. For G10A A37G G47U U59A G117U G122U U125G the value was -5.7. With U9G G52A U112C, the “polymerase ribozyme fitness (log ratio)” value stood at 1.21. The figure for G10C G48C C102U is -2.77; for U9A U55G C99U it is -2.44. For the variant U9G C99U C124A U131G, the “polymerase ribozyme fitness (log ratio)” value is -3.14. On to G10A G19A, for which the “polymerase ribozyme fitness (log ratio)” value was -0.895.

On to U9C G19A U96A A121G U132A, for which the “polymerase ribozyme fitness (log ratio)” value is -1.11.

As for G10A C12U G36U C53A, the “polymerase ribozyme fitness (log ratio)” value is -0.13. For G10C C13A G58A G71A C98U, the “polymerase ribozyme fitness (log ratio)” value was -3.11. Take U9G C20A: the “polymerase ribozyme fitness (log ratio)” value was -2.5. For U9A C73G G117A the value was 0.428; for U9C A83C, 0.121.
